Laboratory results taken from patent US20120220489A1.

Experiments:
[1] = biological target: ERK1 (p42) active (phospho), human, Active Motif 31 152 (human) (UniProt P27361); assay: RPA, competition: +free H3 peptide 10 nM
[2] = biological target: ERK1 (p44) active (GST tagged), human, Invitrogen PV 3311 (human) (UniProt P27361); assay: RPA, competition: +free H3 peptide 10 nM
[3] = biological target: ERK1 (p44) inactive (GST tagged), human, Invitrogen PV 3312 (human) (UniProt P27361); assay: RPA, competition: +free H3 peptide 10 nM
[4] = biological target: ERK1 (p44), human, Cell Signaling Technology 7416 (human) (UniProt P27361); assay: RPA, competition: +free H3 peptide 10 nM
[5] = biological target: ERK2 (p42), human, Biosource PHO 0104 (human) (UniProt P28482); assay: RPA, competition: +free H3 peptide 10 nM
Chain of UniProt P28482 (P28482 2-360 limits assumed): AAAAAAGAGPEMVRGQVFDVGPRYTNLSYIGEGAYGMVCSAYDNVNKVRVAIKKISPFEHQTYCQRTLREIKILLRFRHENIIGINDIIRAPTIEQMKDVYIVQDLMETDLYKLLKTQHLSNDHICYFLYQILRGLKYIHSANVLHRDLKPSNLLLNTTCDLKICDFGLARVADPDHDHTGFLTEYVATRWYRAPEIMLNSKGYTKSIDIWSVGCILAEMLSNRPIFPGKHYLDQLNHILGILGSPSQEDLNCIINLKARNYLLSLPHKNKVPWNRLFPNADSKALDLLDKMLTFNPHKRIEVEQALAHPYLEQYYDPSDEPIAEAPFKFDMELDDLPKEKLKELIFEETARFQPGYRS

[6] = biological target: Erk1-BSA 2.7x peptide-protein conjugate (human; bovine); assay: RPA, competition: +free H3 peptide 10 nM
Chain of Erk1-BSA 2.7x peptide-protein conjugate (human; bovine) (peptide, as listed by the source limits assumed, chain 1 of 2): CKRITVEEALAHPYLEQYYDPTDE
Chain of Erk1-BSA 2.7x peptide-protein conjugate (human; bovine) (P02769 25-607 limits assumed, chain 2 of 2): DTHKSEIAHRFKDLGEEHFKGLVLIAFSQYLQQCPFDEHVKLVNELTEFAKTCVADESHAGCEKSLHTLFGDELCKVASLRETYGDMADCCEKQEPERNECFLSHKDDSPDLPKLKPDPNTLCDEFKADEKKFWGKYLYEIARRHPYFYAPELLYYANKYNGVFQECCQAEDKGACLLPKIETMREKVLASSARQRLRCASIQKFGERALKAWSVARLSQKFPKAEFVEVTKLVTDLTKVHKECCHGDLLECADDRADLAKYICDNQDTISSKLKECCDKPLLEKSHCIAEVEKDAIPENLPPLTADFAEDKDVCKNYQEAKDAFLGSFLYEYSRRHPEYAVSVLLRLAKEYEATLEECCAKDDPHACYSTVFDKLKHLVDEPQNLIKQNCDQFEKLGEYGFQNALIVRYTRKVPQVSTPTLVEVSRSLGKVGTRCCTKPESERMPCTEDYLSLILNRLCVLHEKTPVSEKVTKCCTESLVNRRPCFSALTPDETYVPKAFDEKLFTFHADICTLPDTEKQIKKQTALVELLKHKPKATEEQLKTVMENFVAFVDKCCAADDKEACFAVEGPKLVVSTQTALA

[7] = biological target: Histone H3 recombinant protein, calf, Roche 11 034 758 001 (calf) (UniProt P68432); assay: RPA, competition: +free H3 peptide 10 nM
[8] = biological target: Histone H3 recombinant protein, human, Upstate 14-494 (human) (UniProt P68431); assay: RPA, competition: +free H3 peptide 10 nM
[9] = biological target: Histone H3-BSA 2.7x peptide-protein conjugate (bovine); assay: RPA, competition: +free H3 peptide 10 nM
Chain of Histone H3-BSA 2.7x peptide-protein conjugate (bovine) (P02769 25-607 limits assumed): as the sequence (P02769 25-607 limits assumed, chain 2 of 2) above

[10] = biological target: pErk1/2-BSA 2.7x peptide-protein conjugate (human; bovine); assay: RPA, competition: +free H3 peptide 10 nM
Chain of pErk1/2-BSA 2.7x peptide-protein conjugate (human; bovine) (P02769 25-607 limits assumed): as the sequence (P02769 25-607 limits assumed, chain 2 of 2) above

[11] = biological target: pRb recombinant protein, human, Active Motif 31 128 (human) (UniProt P06400); assay: RPA, competition: +free H3 peptide 10 nM
Chain of UniProt P06400 (P06400 whole entry): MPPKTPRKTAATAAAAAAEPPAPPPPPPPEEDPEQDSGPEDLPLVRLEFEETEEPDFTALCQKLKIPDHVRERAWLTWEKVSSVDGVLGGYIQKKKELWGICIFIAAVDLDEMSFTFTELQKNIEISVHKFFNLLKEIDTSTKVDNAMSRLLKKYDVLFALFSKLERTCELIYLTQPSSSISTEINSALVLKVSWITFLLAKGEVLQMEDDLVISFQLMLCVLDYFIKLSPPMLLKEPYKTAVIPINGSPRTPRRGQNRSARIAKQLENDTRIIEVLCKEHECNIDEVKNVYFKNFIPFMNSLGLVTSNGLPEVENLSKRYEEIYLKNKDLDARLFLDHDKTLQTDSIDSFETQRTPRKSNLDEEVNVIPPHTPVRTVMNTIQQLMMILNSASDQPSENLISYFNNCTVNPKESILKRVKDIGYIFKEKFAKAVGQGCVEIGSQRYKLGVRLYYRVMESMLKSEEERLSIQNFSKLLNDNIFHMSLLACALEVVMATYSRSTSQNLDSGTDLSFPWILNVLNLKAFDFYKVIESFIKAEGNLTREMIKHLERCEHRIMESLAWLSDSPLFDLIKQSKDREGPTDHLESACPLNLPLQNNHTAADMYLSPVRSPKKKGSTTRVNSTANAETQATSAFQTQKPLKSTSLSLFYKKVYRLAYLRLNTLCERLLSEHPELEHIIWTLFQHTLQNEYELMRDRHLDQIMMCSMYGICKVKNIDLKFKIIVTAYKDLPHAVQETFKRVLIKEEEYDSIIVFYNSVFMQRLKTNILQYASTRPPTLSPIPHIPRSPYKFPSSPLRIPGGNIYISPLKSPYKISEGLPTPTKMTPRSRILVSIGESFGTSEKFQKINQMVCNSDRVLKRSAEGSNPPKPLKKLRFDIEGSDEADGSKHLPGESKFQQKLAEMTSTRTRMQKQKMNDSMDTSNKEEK

[12] = biological target: pRb-BSA 1x peptide-protein conjugate (bovine); assay: RPA, competition: +free H3 peptide 10 nM
Chain of pRb-BSA 1x peptide-protein conjugate (bovine) (P02769 25-607 limits assumed): as the sequence (P02769 25-607 limits assumed, chain 2 of 2) above

[13] = biological target: ERK1 (p42) active (phospho), human, Active Motif 31 152 (human) (UniProt P27361); assay: RPA, competition: +free H3 peptide 10000 nM
[14] = biological target: ERK1 (p44) active (GST tagged), human, Invitrogen PV 3311 (human) (UniProt P27361); assay: RPA, competition: +free H3 peptide 10000 nM
[15] = biological target: ERK1 (p44) inactive (GST tagged), human, Invitrogen PV 3312 (human) (UniProt P27361); assay: RPA, competition: +free H3 peptide 10000 nM
[16] = biological target: ERK1 (p44), human, Cell Signaling Technology 7416 (human) (UniProt P27361); assay: RPA, competition: +free H3 peptide 10000 nM
[17] = biological target: ERK2 (p42), human, Biosource PHO 0104 (human) (UniProt P28482); assay: RPA, competition: +free H3 peptide 10000 nM
[18] = biological target: Erk1-BSA 2.7x peptide-protein conjugate (human; bovine); assay: RPA, competition: +free H3 peptide 10000 nM
[19] = biological target: Histone H3 recombinant protein, calf, Roche 11 034 758 001 (calf) (UniProt P68432); assay: RPA, competition: +free H3 peptide 10000 nM
[20] = biological target: Histone H3 recombinant protein, human, Upstate 14-494 (human) (UniProt P68431); assay: RPA, competition: +free H3 peptide 10000 nM
[21] = biological target: Histone H3-BSA 2.7x peptide-protein conjugate (bovine); assay: RPA, competition: +free H3 peptide 10000 nM
[22] = biological target: pErk1/2-BSA 2.7x peptide-protein conjugate (human; bovine); assay: RPA, competition: +free H3 peptide 10000 nM
[23] = biological target: pRb recombinant protein, human, Active Motif 31 128 (human) (UniProt P06400); assay: RPA, competition: +free H3 peptide 10000 nM
[24] = biological target: pRb-BSA 1x peptide-protein conjugate (bovine); assay: RPA, competition: +free H3 peptide 10000 nM
[25] = biological target: Histone H3-BSA 2.7x peptide-protein conjugate (bovine); assay: RPA standard curve, assay 1, LOD back-calculated from one-site fit
[26] = biological target: Erk1-BSA 2.7x peptide-protein conjugate (human; bovine); assay: as above
[27] = biological target: pErk1/2-BSA 2.7x peptide-protein conjugate (human; bovine); assay: RPA, normal assay
[28] = biological target: ERK1 (p42) active (phospho), human, Active Motif 31 152 (human) (UniProt P27361); assay: RPA standard curves
[29] = biological target: ERK1 (p44) active (GST tagged), human, Invitrogen PV 3311 (human) (UniProt P27361); assay: RPA standard curves
[30] = biological target: ERK1 (p44) inactive (GST tagged), human, Invitrogen PV 3312 (human) (UniProt P27361); assay: RPA standard curves
[31] = biological target: ERK1 (p44), human, Cell Signaling Technology 7416 (human) (UniProt P27361); assay: RPA standard curves
[32] = biological target: ERK1 (p42) active (phospho), human, Active Motif 31 152 (human) (UniProt P27361); assay: RPA, competition: +free pErk1/2 peptide 10 nM
[33] = biological target: ERK2 (p42), human, Biosource PHO 0104 (human) (UniProt P28482); assay: RPA, competition: +free pErk1/2 peptide 10 nM
[34] = biological target: Erk1-BSA 2.7x peptide-protein conjugate (human; bovine); assay: RPA, competition: +free pErk1/2 peptide 10 nM
[35] = biological target: Histone H3 recombinant protein, calf, Roche 11 034 758 001 (calf) (UniProt P68432); assay: RPA, competition: +free pErk1/2 peptide 10 nM
[36] = biological target: Histone H3 recombinant protein, human, Upstate 14-494 (human) (UniProt P68431); assay: RPA, competition: +free pErk1/2 peptide 10 nM
[37] = biological target: Histone H3-BSA 2.7x peptide-protein conjugate (bovine); assay: RPA, competition: +free pErk1/2 peptide 10 nM
[38] = biological target: pErk1/2-BSA 2.7x peptide-protein conjugate (human; bovine); assay: RPA standard curve, assay 1, LOD back-calculated from one-site fit

Histone H3 antibody, Abcam ab1791
maximum standard curve signal [1]: < 0.01 RFI | maximum standard curve signal [2]: < 0.01 RFI | maximum standard curve signal [3]: < 0.01 RFI | maximum standard curve signal [4]: < 0.01 RFI | maximum standard curve signal [5]: < 0.01 RFI | maximum standard curve signal [6]: < 0.01 RFI | maximum standard curve signal [7]: 0.3 RFI | maximum standard curve signal [8]: 7.04 RFI | maximum standard curve signal [9]: 4.28 RFI | maximum standard curve signal [10]: < 0.01 RFI | maximum standard curve signal [11]: < 0.01 RFI | maximum standard curve signal [12]: < 0.01 RFI | maximum standard curve signal [13]: < 0.01 RFI | maximum standard curve signal [14]: < 0.01 RFI | maximum standard curve signal [15]: < 0.01 RFI | maximum standard curve signal [16]: < 0.01 RFI | maximum standard curve signal [17]: < 0.01 RFI | maximum standard curve signal [18]: 0.01 RFI | maximum standard curve signal [19]: < 0.01 RFI | maximum standard curve signal [20]: 0.07 RFI | maximum standard curve signal [21]: 0.19 RFI | maximum standard curve signal [22]: 0.02 RFI | maximum standard curve signal [23]: < 0.01 RFI | maximum standard curve signal [24]: < 0.01 RFI | LOD [25]: 0.104 nM

p44/42 MAPK (Erk1/2) antibody, Biosource 44-654G
LOD [26]: 0.045 nM

p44/42 MAPK phospho (pERK1/2) Thr202/Tyr204 antibody, Cell Signaling Technology #9101
maximum standard curve signal [27]: 3.47 RFI | signal relative to pErk1 protein (Invitrogen) [28]: 12% | signal intensity relative to the pErk1/2-BSA peptide standard [29]: 25% | signal relative to pErk1 protein (Invitrogen) [30]: 3% | signal relative to pErk1 protein (Invitrogen) [31]: 11% | maximum standard curve signal [32]: 0.01 RFI | maximum standard curve signal [33]: 0.01 RFI | maximum standard curve signal [34]: 0.01 RFI | maximum standard curve signal [35]: 0.01 RFI | maximum standard curve signal [36]: 0.01 RFI | maximum standard curve signal [37]: 0.1 RFI | LOD [38]: 0.028 nM
